Experimental data from publication PMC4749557 (2015).

T1: recombinant Mtgr1 NHR1 domain (residues 98–206) (mouse, UniProt O70374 98-206, H200K, biotin (biotin-acceptor tag))
T1 sequence: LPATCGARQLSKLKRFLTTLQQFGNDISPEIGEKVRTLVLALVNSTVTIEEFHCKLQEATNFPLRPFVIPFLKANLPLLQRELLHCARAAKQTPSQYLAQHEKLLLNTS

B1: human PRDM14 (residues 238–487) (domain or fragment)
chain: LPQTLDKDSLQLPEGLCLMQTVFGEVPHFGVFCSSFIAKGVRFGPFQGKVVNASEVKTYGDNSVMWEIFEDGHLSHFIDGKGGTGNWMSYVNCARFPKEQNLVAVQCQGHIFYESCKEIHQNQELLVWYGDCYEKFLDIPVSLQVTEPGKQPSGPSEESAEGYRCERCGKVFTYKYYRDKHLKYTPCVDKGDRKFPCSLCKRSFEKRDRLRIHILHVHEKHRPHKCSTCGKCFSQSSSLNKHMRVHSGDR
modifications: biotin (biotin-acceptor tag)
B2: Mb(hPRDM14_S4), purified monobody (designed binder)
chain: GSVSSVPTKLEVVAATPTSLLISWDAPAVTVDLYFITYGETGGNSPVQKFTVPGSKSTATISGLKPGVDYTITVYAQYYYRGWYVGSPISINYRT
modifications: biotin
B3: recombinant Prdm14 pre-SET+SET domains (residues 184–373) (domain or fragment)
chain: GFNFTEEELSFVLYGAIASPEHPTDLQHAISGILVPTESSGSNHLHKTLDKDSLQLPEGLCLMQTSFGDVPHFGVFCSDFIAKGVRFGPFRGRVVNASEVKAHRDNSRMWEIFEDGHLSHFIDGKGSGNWMSYVNCARFPKEQNLLAVQHQGQIFYESCRDIQRNQELLVWYGNGYEKFLGVPMNLRVTE
modifications: biotin (biotin-acceptor tag)

What was measured:
[1] = biological target: Mb(hPRDM14_S14), purified monobody (biotin)
[2] = biological target: B1
[3] = biological target: T1, recombinant Mtgr1 NHR1 domain (residues …); experiment: Mtgr1 immobilized on beads
[4] = biological target: T1, recombinant Mtgr1 NHR1 domain (residues …); experiment: Prdm14 immobilized on beads

Kd [1] [nM] | Kd [2] [nM] | Kd [3] [nM] | Kd [4] [nM] | Binder
2.8 |  |  |  | B1
 | 38 |  |  | B2
1.7 |  | 11 | 7.1 | B3
